The supplement of paper PMC12764529
± gives the half width of the 95% confidence interval.

test: folding stability dG unfold from chymotrypsin proteolysis; higher = more stable
Method: (§1)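 Folding stability of de novo designed mini-proteins (<80 aa, no Cys; designed by TrROS, TrMRF, ProteinMPNN and the joint model) was measured by cDNA display proteolysis with trypsin and chymotrypsin. Each protease was used at 11 concentrations in a threefold dilution series plus a no-protease condition. K50 was inferred by Bayesian fitting of sequencing counts, and dG unfold was derived against a sequence-predicted unfolded-state K50 (Tsuboyama et al. method). Sequences shown include variable-length N-terminal GS-type padding (SAGGSAGG...) inside a display construct carrying a PA tag. Rows were kept only if the AF2 dimer inter-PAE was >15, to exclude likely homo-oligomers.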

Sequence	folding stability dG unfold [kcal/mol]
SAGGYPAEIEASNVKPEELKKAIEDAPWAKELDVEVEDSSPDGSVKAKFKANSKAEVKRFEKAVKDAFSAGG [r13_580_TrMRF]	-0.448 ± 0.34
SAGWVVIEIPKKEIPINPENVQIQEDNDRRYIFIPGEDADELKDQFPNKDVKIEPMPPEQMDRFMKQLSAGG [r19_271_TrROS]	-0.242 ± 0.55
SAGGSAGGSYLVKIEWRHNGKPIEQTIPIDPGELPLEDIASNFPGYPWKIKVMDPNGEERPFTSAGGSAGGS [r12_540_TrROS]	-0.0033 ± 0.33
SAGGELLEDLNIKEIEVTEVKTYRNPENGMRMYEPTLTIKNPDGEKIKFTIEHMYDPGNPKPMIHIMSAGGS [r8_422_TrROS]	-0.212 ± 0.52
SAMKIYVAPGPFTVTARPALPGGEEITITTPITPEQVADPAFLEALVQALEDAGVPATYSILPAGVALPSAG [r14_60_JUSTAS]	0.597 ± 0.22
SAGGSAGGSAGPEEFEVLEMEAELNPETGEITVRFGSPEGEEITYTVTRPGELENLKLYASAGGSAGGSAGG [r11_711_TrMRF]	-0.136 ± 0.39
SAGGESIVIPVKTLEEAKKVAEEIKEKFEKLGYKVEIFEEPETGRIIVKVTKKDKGTVSTTIITFPVPSAGG [r13_641_JUSTAS]	4.21 ± 0.76
SAGGMPPNATLSGKRVDFKPVPHPDGKTLLKIYYNGKPIEEIEVPPGEAEKLIAELPENTNIVTLPESAGGS [r8_41_JUSTAS]	-0.33 ± 0.58
SAGGSAMNVKSKETVEELFSESPEKVSIKKTTTYTFPNSKTVEITYYKPDGKKIATKNLPLSEYSSSAGGSA [r15_755_JUSTAS]	-0.238 ± 0.59

test: folding stability dG unfold (combined trypsin and chymotrypsin); higher = more stable
Method: as §1

Sequence	folding stability dG unfold [kcal/mol]
SAGGYPAEIEASNVKPEELKKAIEDAPWAKELDVEVEDSSPDGSVKAKFKANSKAEVKRFEKAVKDAFSAGG [r13_580_TrMRF]	< -1
SAGGSAGGSAGMTTYEGTDPEELREAVEAEAKARGVEIEITSVTTSPDGKYTLDVKVTPPSAGGSAGGSAGG [r11_304_JUSTAS]	< -1
SAGGSAGGSAEEEKTVVEEKVEVKVEVKLKAPPPPEVTVSVELDEETNELKITASAEALKKSAGGSAGGSAG [r3_186_TrROS_Hall]	< -1
SAGGSMTVKEFTDPEEVEKAVEEMDSNEVAVMPVPERPVERVFTKINDKVIRETINGETVTTEELLSAGGSA [r2_280_JUSTAS]	< -1
SAGGSASSIPPGKILSKKEFEVELPDGKKLKITILEVPGPTLALTEEPGEKKPKTYKVEELKKLLESAGGSA [r15_329_JUSTAS]	< -1
SAGMSTSSPTAKSTVLETSEEGNTVTKKVKVTTPSKDSSGNSSTTTTTTTITTELKGKPEPKTPEYYAKSAG [r5_70_JUSTAS]	< -1
SAGGSAGGSAGGPNPRIIPLTFPVKDKEAVILLPPGVKPASIEVDPEDGRIRVNAVDPLSAGGSAGGSAGGS [r10_906_TrMRF]	< -1
SAGGSAGGSAGGPERLVLASFIPGPRLLHVVEVSLDGVGASISPSVFSIHPDRPDEIEPVSAGGSAGGSAGG [r7_866_TrMRF]	< -1
SAGGSAGGSAGGGKNRPVIPITEGDKDEAKEFADTFQKEWRRQNGEPAQNVDIDIVPTPSAGGSAGGSAGGS [r10_1216_TrROS]	< -1
SAGGSARWMEYQIPFKSPQKREKLKEALMEHPGISEVDWPPNGTINITIPRDNPNRIKKAAKKAGFSAGGSA [r15_834_TrROS]	< -1
SAGGSAGGSKLPDGPYKIRMPHNGRPYEMPIRVTSDGMIEVRMPGEGKKRTFPLNQAEIEPLDSAGGSAGGS [r12_782_TrROS]	< -1
SAMKPGTVVKVTIIPTEEKLIYNVPEKTVLKSSRTVDATVTKVSTPGSKVTLEIDLPDLPPGSEIELGLSAG [r14_412_JUSTAS]	< -1
SAGGSAGGSAGWIKEALRDMPPGKPRRIPIRNPDGNPIKIRIKVDRDPENGKYEVPIEIVSAGGSAGGSAGG [r11_343_TrROS]	< -1
SAGGSAGGSAGRMYIIRNPGKKVIIPRGWMPKLQKKNPNVEIEEFESPEDADKAQDKALDSAGGSAGGSAGG [r11_60_TrROS]	< -1
SAGGSAGGSAINLADIHEVEVEEIPEDPTAVYRVRARLPEPGVPVDFLLVRFPDGSVRFYGSAGGSAGGSAG [r3_234_TrMRF]	< -1
SAMTIPVLVEGDIEKLEEREEEIKREVAEELGLPEDLKDLKVEVLEIEPLPDEDGKPTKVRMLVEVHLRSAG [r14_736_TrMRF]	< -1
SAGGSAGGSFEVEPTPDHVSIRYYNPDGNPPVSATVDPPEGDIDFEHPDKKQEFPLKPGDTLISAGGSAGGS [r12_536_TrROS]	< -1
SAGGSAGGSAGMLYRALVPHPDGSFSTALSEDARELERELLEATGIPPENIKIEPIPLETSAGGSAGGSAGG [r17_169_TrMRF]	< -1
SAGGSAGGSAGGRGVLLVFRLDGEVRPTPDGEPVLELTDLEVEEREVTVTRDADGVLHAGSAGGSAGGSAGG [r11_381_TrMRF]	< -1
SAGGSAGGSANLEAAKKLFKDYPPGEEREIPIRVRTPGKPVPFRIKIYYPEDGNMKIDIEPYSAGGSAGGSA [r18_493_TrROS]	< -1
SAGGSAGGSGKKYMIDSPEAMNDMRDAGIPPKKIEPEPYPIPANDNPGFKDMPWPMTMYRVKVSAGGSAGGS [r12_78_TrROS]	< -1
SAGGSAGGSAGGEKTIFIPPDNPEKLADEAQKKGLTVEREPNSWLKVNGKKIRIIIMPPSAGGSAGGSAGGS [r10_930_TrROS]	< -1
SAGGSAGGSAGGSMVAYITTKGKKLEIEVPEDLPEEIKEELKKKGIPIESITFEEVEPESAGGSAGGSAGGS [r10_405_JUSTAS]	< -1
SAGGSAGGSAGSMVLESEEPIPETGEPVLVKTTLSEEPGRERTIVTTYRDGKPLSTTVELSAGGSAGGSAGG [r11_631_JUSTAS]	< -1
SAGGSAGGSAGTIRNPGMEFTIKKDPNDKVVVKMNDQERTIRVGKPIYFPGGMPFRIEPASAGGSAGGSAGG [r11_147_TrROS]	< -1

Sequence	folding stability dG unfold [kcal/mol]
SAGGEFKLKREEDPDGERKITLEFPGWPYEVVIPKNAKDLPPGNPIYVRGGGGTRTMPIKDLLPELLNSAGG [r13_97_TrROS]	< -1
SDDDFADSPEAKKNMENMKPVPPPPTITINVKGDDPEDALDDIREHFPGLDPSNIKSVETTDGTLTITFQSA [r9_723_TrROS]	< -1
SDAIKNQTIEELLDQLPPGDEPGEPKEFTIPGYEIKITDFEPEKDDGGGPRPRRVIEVEDPNGPIEIPIESA [r9_279_TrROS]	< -1
SAGGPGKYRVIFYPKDTDKPIEADVPASHIKKFDPKNNFIEISAPPGPTLTIPDPDKVKKVIIEPIPSAGGS [r8_111_TrMRF]	< -1
SAGGPPKIKITDIRPNKGHMRYKIKDPNKEVEIHMHGNSMHIEYPDGKEKTFDGPGSFEDAAKRIIEKSAGG [r13_98_TrROS]	< -1
SAGGSEEEKAAKEAAEKELPPAEPKPVLTPDGVVTTYYPVTGAVEVTRYERDAAGVPVKVSSTTDPKSAGGS [r16_243_JUSTAS]	< -1
SAGGSAGGSVIEKDPDDTILLKLEIPEEGKESLVTLPKDEVEKVIEEKGVKKLTALKLGEPKPSAGGSAGGS [r12_294_JUSTAS]	< -1
SAGGMSIRELLKEKGIPIKVENEPTDGRPRMKITIQDNDKPVKIDMPMDDPERMIRDAAKELGLKPISAGGS [r8_226_TrROS]	< -1
KVPAGVEDVKVVKGPLTVKITAPVKNPNVPIKVGNKDGKVVSEKWKVDKAAGKVTVEVPVKKANEVTFNPES [r1_138_TrMRF]	< -1
SAGGSATITLKPGEKVEITVTITVTEYKYDKNGKLVEKKTYKITVKATFTVDEDGNIHVEIKIEIESAGGSA [r2_154_TrROS_Hall]	> 6
SAGGSAGGSAMNPSEPYVTLTETVVEEAEEVVETFPGYGVYKYTETKLKTTVKVTTVPKSLLSAGGSAGGSA [r18_137_JUSTAS]	< -1
SAGGMKTVVTTEPATFDATDPNTGVPIGTVTIGPVVTTKPPNAVTTHYTFRIGGTEVATSTTTNPGLASAGG [r13_758_JUSTAS]	< -1
SAGGSAGGSAGSMTVLEEEEIELPDDVVLTRLKVPGEELIRIEIPEEGKEEIIPASEWPGSAGGSAGGSAGG [r17_286_JUSTAS]	< -1
SAGGSAGGSAGGSPMLLVRVKKTNKWISLEEALEEAEKKGEEIEIEEVEVVELPPGQEPSAGGSAGGSAGGS [r4_479_TrROS_Hall]	< -1
SAGGSAGGSAPQRFNIVLEVKEPETGKTKVVKRTLSSEEEALKKIPEGLEVKKITVLPPDVPLSAGGSAGGS [r12_208_JUSTAS]	< -1
SAGPPEPITWKIRNPKNGKKRKIQIWQPDEQMAVQIRDPNDGKPRREIPMPLEEARDLLKSDGFEVEPVSAG [r5_291_TrROS]	< -1
SAGGSAGGSAAPVSEREVTLTGSGTPRVVPVRVLGEAASPSESIATEATLPDGRPLRLTLRESAGGSAGGSA [r18_54_JUSTAS]	< -1
SAGGSAGGSAGNIEVNGDRIKIRFEGGHEFTFPNLPPGKPIEFKFNNQPFRIRDVEVEPPSAGGSAGGSAGG [r11_16_TrROS]	< -1
SAGGSAGGSAGGEPEPIPFRIKPHDEDGKKKGTFPINPLQKKGIPAEEFADKNGFEIEISAGGSAGGSAGGS [r10_153_TrROS]	< -1
SGDSIHIPPNDLEYAKRIVKDLLDNGRDTIMMNSPEYKKELKEALPGVKVEPVPPMPPPPPSPEDKDKLNSA [r9_639_TrROS]	< -1
SAGGSAGGSAASNGPLPVPLPETVIEAPLDEVPDEEIRARLPEELAEEFLRRMPPDATVLLSAGGSAGGSAG [r3_326_JUSTAS]	< -1
SMTLEEALANPEKLAEELAPPPTPAVDEEIDIVDPLTNTTRPARATVLLEPGRRVIVLPEDGAEYPVDPESA [r9_548_JUSTAS]	< -1
SNAKDLARELFEEHGYPIEPESIDPDEDWVTFRFEPPGEPPYDISIDVDPEEGKLKVTIDPQNGYITIPVSA [r9_1119_TrROS]	< -1
PINPEIAEKLKVAIANKLKEAGYKVKSVSISPLPDGTISGKVGDKTVTLPLPNGGTAGISVEAEKVSPEEAS [r1_31_TrMRF]	< -1
